# From patent US20260176319A1 (KALLYOPE, published 2026)
# Starred links: 1 amine or outer side, 2 acyl side, 3 side chain; linkers in the order of their positions; H or OH if unused. Non-standard residues stand in square brackets, D forms with d. No end group written: not given here. *: point of attachment. C20 diacid = O=C(O)CCCCCCCCCCCCCCCCCCC(=O)*; d(γGlu) = O=C(O)[C@@H](CCC(=O)[*:2])N[*:1]; C18 diacid = O=C(O)CCCCCCCCCCCCCCCCC(=O)*; γGlu = O=C(O)[C@H](CCC(=O)[*:2])N[*:1]; Palmitoyl = CCCCCCCCCCCCCCCC(=O)*; 3Pal = N[C@@H](Cc1cccnc1)C(=O)O; Nle = CCCC[C@H](N)C(=O)O; AEEA = NCCOCCOCC(=O)O; βAla = NCCC(=O)O
# B1: Peptide 153 (peptide)
# peptide: {C20 diacid}-[γGlu]GRHWAV[dA]HL[Nle]-NH2
# SMILES: CCCC[C@H](NC(=O)[C@H](CC(C)C)NC(=O)[C@H](Cc1c[nH]cn1)NC(=O)[C@@H](C)NC(=O)[C@@H](NC(=O)[C@H](C)NC(=O)[C@H](Cc1c[nH]c2ccccc12)NC(=O)[C@H](Cc1c[nH]cn1)NC(=O)[C@H](CCCNC(=N)N)NC(=O)CNC(=O)CC[C@H](NC(=O)CCCCCCCCCCCCCCCCCCC(=O)O)C(=O)O)C(C)C)C(N)=O
# B2: Peptide 152 (peptide)
# peptide: {C18 diacid}-[γGlu][AEEA][AEEA]QHWAV[βAla]HL[Nle]-NH2
# SMILES: CCCC[C@H](NC(=O)[C@H](CC(C)C)NC(=O)[C@H](Cc1c[nH]cn1)NC(=O)CCNC(=O)[C@@H](NC(=O)[C@H](C)NC(=O)[C@H](Cc1c[nH]c2ccccc12)NC(=O)[C@H](Cc1c[nH]cn1)NC(=O)[C@H](CCC(N)=O)NC(=O)COCCOCCNC(=O)COCCOCCNC(=O)CC[C@H](NC(=O)CCCCCCCCCCCCCCCCC(=O)O)C(=O)O)C(C)C)C(N)=O
# B3: Peptide 155 (peptide)
# peptide: {C20 diacid}-[γGlu]RNHWAV[dA]HL[Nle]
# B4: Peptide 151 (peptide)
# peptide: {C20 diacid}-[γGlu][AEEA][AEEA]GQHWAV[dA]HL[Nle]-NH2
# SMILES: CCCC[C@H](NC(=O)[C@H](CC(C)C)NC(=O)[C@H](Cc1c[nH]cn1)NC(=O)[C@@H](C)NC(=O)[C@@H](NC(=O)[C@H](C)NC(=O)[C@H](Cc1c[nH]c2ccccc12)NC(=O)[C@H](Cc1c[nH]cn1)NC(=O)[C@H](CCC(N)=O)NC(=O)CNC(=O)COCCOCCNC(=O)COCCOCCNC(=O)CC[C@H](NC(=O)CCCCCCCCCCCCCCCCCCC(=O)O)C(=O)O)C(C)C)C(N)=O
# B5: Peptide 154 (peptide)
# peptide: {C20 diacid}-[γGlu]RNHWAV[dA]HL[Nle]-NH2
# SMILES: CCCC[C@H](NC(=O)[C@H](CC(C)C)NC(=O)[C@H](Cc1c[nH]cn1)NC(=O)[C@@H](C)NC(=O)[C@@H](NC(=O)[C@H](C)NC(=O)[C@H](Cc1c[nH]c2ccccc12)NC(=O)[C@H](Cc1c[nH]cn1)NC(=O)[C@H](CC(N)=O)NC(=O)[C@H](CCCNC(=N)N)NC(=O)CC[C@H](NC(=O)CCCCCCCCCCCCCCCCCCC(=O)O)C(=O)O)C(C)C)C(N)=O
# B6: Peptide 12 (peptide)
# peptide: Palmitoyl-[d(γGlu)][AEEA][AEEA]GN[3Pal]WAV[dA]HL[Nle]-NH2
# SMILES: CCCCCCCCCCCCCCCC(=O)N[C@H](CCC(=O)NCCOCCOCC(=O)NCCOCCOCC(=O)NCC(=O)N[C@@H](CC(N)=O)C(=O)N[C@@H](Cc1cccnc1)C(=O)N[C@@H](Cc1c[nH]c2ccccc12)C(=O)N[C@@H](C)C(=O)N[C@H](C(=O)N[C@H](C)C(=O)N[C@@H](Cc1c[nH]cn1)C(=O)N[C@@H](CC(C)C)C(=O)N[C@@H](CCCC)C(N)=O)C(C)C)C(=O)O
# B7: Peptide 158 (peptide)
# peptide: {C20 diacid}-[γGlu]RRHWAV[dA]HL[Nle]-NH2
# SMILES: CCCC[C@H](NC(=O)[C@H](CC(C)C)NC(=O)[C@H](Cc1c[nH]cn1)NC(=O)[C@@H](C)NC(=O)[C@@H](NC(=O)[C@H](C)NC(=O)[C@H](Cc1c[nH]c2ccccc12)NC(=O)[C@H](Cc1c[nH]cn1)NC(=O)[C@H](CCCNC(=N)N)NC(=O)[C@H](CCCNC(=N)N)NC(=O)CC[C@H](NC(=O)CCCCCCCCCCCCCCCCCCC(=O)O)C(=O)O)C(C)C)C(N)=O
# B8: Peptide 156 (peptide)
# peptide: {C18 diacid}-[γGlu][AEEA][AEEA]RNHWAV[dA]HL[Nle]
# B9: Peptide 157 (peptide)
# peptide: {C18 diacid}-[γGlu][AEEA][AEEA]RRHWAV[dA]HL[Nle]
# Biological target: human GRP receptor (human, UniProt P30550 1-384)
# Sequence (P30550 whole entry): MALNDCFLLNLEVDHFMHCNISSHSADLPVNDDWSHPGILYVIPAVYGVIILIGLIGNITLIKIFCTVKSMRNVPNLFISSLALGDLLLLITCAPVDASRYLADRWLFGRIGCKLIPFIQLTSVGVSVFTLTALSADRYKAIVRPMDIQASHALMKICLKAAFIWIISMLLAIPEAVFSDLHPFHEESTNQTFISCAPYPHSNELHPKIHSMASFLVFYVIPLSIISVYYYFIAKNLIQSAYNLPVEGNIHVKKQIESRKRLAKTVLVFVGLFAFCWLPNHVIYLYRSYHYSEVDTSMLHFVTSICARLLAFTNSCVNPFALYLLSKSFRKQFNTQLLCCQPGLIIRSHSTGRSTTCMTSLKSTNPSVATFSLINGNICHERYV
# Assay: cell-based or functional assay
row,Binder,hIP1 GRPR EC50 [nM]
1,B1,2.87
2,B2,3.9
3,B3,132
4,B4,2.92
5,B5,7.09
6,B6,1.8
7,B7,1.68
8,B8,358
9,B9,161
